{"source": "paper PMC10620989", "about": "(2023)", "biological_target": "Bim BH3 peptide (FITC-labeled) BH3 (Homo sapiens, UniProt O43521, FITC-labeled Bim BH3 peptide, GST-tagged Mcl-1)", "assay": "fluorescence polarization"}
{"binder": "Mcl-1 (GST-tagged) 152-309 (protein) EDDLYRQSLEIISRYLREQATGSKDSKPLGEAGAAGRRALETLRRVGDGVQRNHETAFQGMLRKLDIKNEGDVKSFSRVMVHVFKDGVTNWGRIVTLISFGAFVAKHLKSVNQESFIEPLAETITDVLVRTKRDWLVKQRGWDGFVEFFHVQDLEGGI", "values": [{"measurement": "Kd", "result": 12.4, "unit": "nM"}]}
